Results reported in patent publication US20260347475 (published 2026).

molecular target: human PD1 (human, UniProt Q15116); test: ELISA
Sequence (Q15116 25-167): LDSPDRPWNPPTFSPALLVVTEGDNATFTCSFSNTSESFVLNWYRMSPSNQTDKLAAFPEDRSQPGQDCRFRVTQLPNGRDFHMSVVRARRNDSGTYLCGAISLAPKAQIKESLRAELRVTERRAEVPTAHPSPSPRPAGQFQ

EC50 [pM] | Binder
65 | P-1151 (antibody, V domains shown) VH: QVQLVQSGVEVKKPGASVKVSCKASGYTFTNYYMYWVRQAPGQGLEWMGGINPSNGGTNYAQKFQGRVTLTTDSSTTTAYMELKSLQFDDTAVYYCARRDYRFDMGFDYWGQGTTVTVSS VL: EIVLTQSPATLSLSPGERATLSCRASQGVSTSGYSYLHWYQQKPGQAPRLLIYLASYRASGVPARFSGSGSGTDFTLTISSLEPEDFAVYYCQHSRDLPLTFGGGTKVEIKR
110 | P-1153 (antibody, V domains shown) VH: QVQLVQSGVEVKKPGASVKVSCKASGYTFTNYYMYWVRQAPGQGLEWMGGINPSNGGTNYAQKFQGRVTLTTDSSTTTAYMELKSLQFDDTAVYYCARRDYRFDMGFDYWGQGTTVTVSS VL: EIVLTQSPATLSLSPGERATLSCRASQGVSTSGYSYLAWYQQKPGQAPRLLIYLASYRASGVPARFSGSGSGTDFTLTISSLEPEDFAVYYCQHSRDLPLTFGGGTKVEIKR

Further lines, the binder ahead of its results:

Binder | EC50 [pM]
P-1150 (antibody, V domains shown) VH: QVQLVQSGVEVKKPGASVKVSCKASGYTFTNYYMYWVRQAPGQGLEWMGGINPSNGGTNFAQKFQGRVTLTTDSSTTTAYMELKSLQFDDTAVYYCARRDYRFDMGFDYWGQGTTVTVSS VL: EIVLTQSPATLSLSPGERATLSCRASQGVSTSGYSYLAWYQQKPGQAPRLLIYLASYRASGVPARFSGSGSGTDFTLTISSLEPEDFAVYYCQHSRDLPLTFGGGTKVEIKR | 88
P-1148 (antibody, V domains shown) VH: QVQLVQSGVEVKKPGASVKVSCKASGYTFTNYYMYWVRQAPGQGLEWMGGINPSNGGTNFAQKFQGRVTLTTDSSTTTAYMELKSLQFDDTAVYYCARRDYRFDMGFDYWGQGTTVTVSS VL: EIVLTQSPATLSLSPGERATLSCRASQGVSTSGYSYLHWYQQKPGQAPRLLIYLASYRASGVPARFSGSGSGTDFTLTISSLEPEDFAVYYCQHSRDLPLTFGGGTKVEIKR | 93
